The values that follow come from article PMC10873202, “Structural mechanisms of autoinhibition and substrate recognition by the ubiquitin ligase HACE1” (Nature Structural & Molecular Biology, 2024).

Broadly, the stoichiometry N is the number of molecules, sites or subunits per partner or assembly.

Changes are numbered by the printed parent chain.

Data set [1] concerns the target T1, HACE1 full length, wild type (HACE1 FL) (human), Q8IYU2.
T1 chain: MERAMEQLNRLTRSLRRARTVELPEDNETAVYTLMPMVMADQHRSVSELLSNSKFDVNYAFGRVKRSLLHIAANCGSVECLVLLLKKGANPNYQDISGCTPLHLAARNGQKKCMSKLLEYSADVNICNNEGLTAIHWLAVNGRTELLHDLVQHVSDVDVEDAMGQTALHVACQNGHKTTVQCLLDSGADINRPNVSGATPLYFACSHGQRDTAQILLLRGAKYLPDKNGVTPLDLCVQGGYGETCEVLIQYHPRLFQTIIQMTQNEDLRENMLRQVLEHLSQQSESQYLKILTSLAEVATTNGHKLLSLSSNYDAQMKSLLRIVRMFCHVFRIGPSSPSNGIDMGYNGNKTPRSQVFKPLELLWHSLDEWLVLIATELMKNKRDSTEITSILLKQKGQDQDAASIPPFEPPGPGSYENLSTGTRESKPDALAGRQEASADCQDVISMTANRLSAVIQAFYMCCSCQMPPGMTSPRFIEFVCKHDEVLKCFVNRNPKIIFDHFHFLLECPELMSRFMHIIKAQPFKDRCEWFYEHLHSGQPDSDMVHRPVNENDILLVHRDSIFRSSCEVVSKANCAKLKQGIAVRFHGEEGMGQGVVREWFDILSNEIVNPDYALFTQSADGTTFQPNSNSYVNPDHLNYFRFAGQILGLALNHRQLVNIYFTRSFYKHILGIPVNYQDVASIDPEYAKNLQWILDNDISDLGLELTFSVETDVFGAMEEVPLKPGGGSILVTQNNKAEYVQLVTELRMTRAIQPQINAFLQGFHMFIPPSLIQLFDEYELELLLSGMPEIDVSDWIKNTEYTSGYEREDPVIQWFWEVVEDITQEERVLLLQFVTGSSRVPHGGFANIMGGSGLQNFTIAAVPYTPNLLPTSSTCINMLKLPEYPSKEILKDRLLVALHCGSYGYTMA
In words: SEC; analytical SEC, 20 μM HACE1, 50 mM HEPES (pH 8.0), 150 mM NaCl, 1 mM DTT, Superdex 200 Increase 3.2/300, 4 °C. Particulars: remark: other sources report otherwise.

The target of data set [2] is T1, HACE1 full length, wild type (HACE1 FL) …. In words: mass photometry; HACE1 samples at 20–40 nM in 25 mM HEPES (pH 8.0), 150 mM NaCl; One^MP mass photometer, BSA calibration. Particulars: remark: other sources report otherwise.
Data set [3] concerns the molecule itself. The description is as above.

B1: HACE1 full length, wild type (HACE1 FL), Q8IYU2 1-909 (enzyme)
chain: T1 chain
Turning to B1, the stoichiometry N in data set [1] and in data set [2] was 2 in each case.

B2: HACE1 L704D (enzyme, human, UniProt Q8IYU2 1-909, looked up)
chain: T1 chain with L704D
notes: HACE1, human, full-length variant (HECT N-lobe); source: E. coli BL21(DE3), purified (IMAC, tag removal, SEC); not shown: His6 (pSKB2) or His10-tandem Z (pN-HZ10-ZZ(3)), N-terminal, cleaved
Consider B2, for which the binding result in data set [3] is “binds”.

B3: HACE1 L8D (enzyme, human, UniProt Q8IYU2 1-909, looked up)
chain: T1 chain with L8D
notes: HACE1, human, full-length variant; source: E. coli BL21(DE3), purified (IMAC, tag removal, SEC); not shown: His6 (pSKB2) or His10-tandem Z (pN-HZ10-ZZ(3)), N-terminal, cleaved
In the case of B3, the binding result in data set [3] is “binds”.

B4: HACE1 T12E (enzyme, human, UniProt Q8IYU2 1-909, looked up)
chain: T1 chain with T12E
notes: HACE1, human, control phospho-mimetic variant compared with the wild-type dimer ('FL'); source: E. coli BL21(DE3), purified (IMAC, tag removal, SEC); not shown: His6 (pSKB2) or His10-tandem Z (pN-HZ10-ZZ(3)), N-terminal, cleaved
For the molecule B4, the binding result in data set [3] is recorded as “binds”.

B5: HACE1 L15A (enzyme, human, UniProt Q8IYU2 1-909, looked up)
chain: T1 chain with L15A
notes: HACE1, human, full-length variant; also called Leu15 substituted with alanine; source: E. coli BL21(DE3), purified (IMAC, tag removal, SEC); not shown: His6 (pSKB2) or His10-tandem Z (pN-HZ10-ZZ(3)), N-terminal, cleaved
In the case of B5, the binding result in data set [3] was “binds”.

B6: HACE1 L11A (enzyme, human, UniProt Q8IYU2 1-909, looked up)
chain: T1 chain with L11A
notes: HACE1, human, full-length variant; also called Leu11 substituted with alanine; source: E. coli BL21(DE3), purified (IMAC, tag removal, SEC); not shown: His6 (pSKB2) or His10-tandem Z (pN-HZ10-ZZ(3)), N-terminal, cleaved
With B6, in data set [3], the binding result was “binds”.

B7: HACE1 L8A (enzyme, human, UniProt Q8IYU2 1-909, looked up)
chain: T1 chain with L8A
notes: HACE1, human, full-length variant; also called Leu8 substituted with alanine; source: E. coli BL21(DE3), purified (IMAC, tag removal, SEC); not shown: His6 (pSKB2) or His10-tandem Z (pN-HZ10-ZZ(3)), N-terminal, cleaved
For B7, the binding result in data set [3] is recorded as “binds”.
